Test results reported in US20140175018A1.
Bridge positions count the residues as written; N and C are the ends. Side chains are listed from the residue outwards. * marks the point of attachment. Biotin = O=C1N[C@H]2[C@H](CS[C@H]2CCCCC(=O)*)N1; PEG = not defined here

T1: chemokine (C-C motif) receptor 4 (CCR4) (human) (UniProt P51679)
T1 sequence (looked up): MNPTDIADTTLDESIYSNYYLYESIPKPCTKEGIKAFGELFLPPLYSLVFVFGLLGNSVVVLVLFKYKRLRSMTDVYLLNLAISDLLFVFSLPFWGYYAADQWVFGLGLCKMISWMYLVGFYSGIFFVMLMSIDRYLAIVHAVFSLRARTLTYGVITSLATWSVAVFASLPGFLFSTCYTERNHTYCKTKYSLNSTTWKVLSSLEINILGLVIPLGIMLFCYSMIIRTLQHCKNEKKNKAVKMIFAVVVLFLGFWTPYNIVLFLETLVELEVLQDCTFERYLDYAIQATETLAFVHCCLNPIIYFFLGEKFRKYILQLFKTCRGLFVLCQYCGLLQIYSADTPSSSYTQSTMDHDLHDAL

T2: chemokine (C-C motif) receptor 10 (CCR10) (human) (UniProt P46092)
T2 sequence (looked up): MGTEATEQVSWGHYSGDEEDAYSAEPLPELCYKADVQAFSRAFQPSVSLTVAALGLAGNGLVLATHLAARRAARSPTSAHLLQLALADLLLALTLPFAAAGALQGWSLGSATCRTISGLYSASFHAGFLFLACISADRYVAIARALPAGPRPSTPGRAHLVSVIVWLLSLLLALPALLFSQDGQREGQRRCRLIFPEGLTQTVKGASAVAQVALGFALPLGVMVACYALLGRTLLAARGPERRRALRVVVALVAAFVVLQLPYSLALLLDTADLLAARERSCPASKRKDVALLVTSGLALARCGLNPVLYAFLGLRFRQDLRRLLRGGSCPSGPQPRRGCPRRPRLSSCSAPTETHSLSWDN


Tests used:
Assay in all cases: cell-based or functional assay
[1] = target: T1, chemokine (C-C motif) receptor 4 (CCR4) (human)
[2] = target: T2, chemokine (C-C motif) receptor 10 (CCR10) (human)
[3] = target: chemokine (C-X-C motif) receptor 3 (CXCR3) (human) (UniProt P49682)
chemokine (C-X-C motif) receptor 3 (CXCR3) (human), sequence (P49682 whole entry): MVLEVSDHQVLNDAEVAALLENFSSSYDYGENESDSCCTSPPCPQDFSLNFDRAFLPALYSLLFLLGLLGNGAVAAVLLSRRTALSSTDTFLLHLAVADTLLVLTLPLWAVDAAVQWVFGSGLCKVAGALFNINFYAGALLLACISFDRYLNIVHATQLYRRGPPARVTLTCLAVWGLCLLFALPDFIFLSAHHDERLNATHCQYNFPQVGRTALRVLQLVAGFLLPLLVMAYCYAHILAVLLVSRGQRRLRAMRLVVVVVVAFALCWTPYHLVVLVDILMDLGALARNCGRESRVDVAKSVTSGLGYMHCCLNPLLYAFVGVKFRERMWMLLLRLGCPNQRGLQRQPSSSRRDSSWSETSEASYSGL

Binder | EC50 (agonist activity, Aequorin assay) [2] [nM] | EC50 (agonist activity, Aequorin assay) [3] [nM] | further results
recombinant native MDC (ligand, UniProt O00626 25-93, looked up) GPYGANMEDSVCCRDYVRYRLPLRVVKHFYWTSDSCPRPGVVLLTFRDKEICADPRVPWVKMILNKLSQ | – | – | EC50 (agonist activity, Aequorin assay) [1]: 3.6 nM
biotinCTAC (CCL27): CTAC derivatised at Lys(87) with PEG-Biotin (ligand, disulfide 10-53, 9-38; reading uncertain) FLLPPSTACCTQLYRKPLSDKLLRKVIQVELQEADGDCHLQAFVLHLAQRSICIHPQNPSLSQWFEHQERKLHGTLPKLNFGMLRKK([PEG-Biotin])G-OH | 49.4 | – | –
biotinITAC (CXCL11): ITAC derivatised with Biotin at an additional C-terminal Lysine after a PEG spacer (ligand, X74 = PEG-K(Biotin)) FPMFKRGRCLCIGPGVKAVKVADIEKASIMYPSNNCDKIEVIITLKENKGQRCLNPKSKQARLIIKKVERKNFX | – | 15.7 | –

Continued, in another order:

EC50 (agonist activity, Aequorin assay) [2] [nM] | EC50 (agonist activity, Aequorin assay) [3] [nM] | Binder | further results
33.5 | – | recombinant native CTAC (ligand, UniProt Q9Y4X3 25-112, looked up) FLLPPSTACCTQLYRKPLSDKLLRKVIQVELQEADGDCHLQAFVLHLAQRSICIHPQNPSLSQWFEHQERKLHGTLPKLNFGMLRKMG | –
– | 0.7 | recombinant native ITAC (ligand, UniProt O14625 22-94, looked up) FPMFKRGRCLCIGPGVKAVKVADIEKASIMYPSNNCDKIEVIITLKENKGQRCLNPKSKQARLIIKKVERKNF | –
